The target of this experiment is T1, Trx-RhopH3-C (P. falciparum RhopH3 amino acids 620-897 with Trx and His tags) (Plasmodium falciparum, UniProt Q8I395 620-897).
T1 sequence: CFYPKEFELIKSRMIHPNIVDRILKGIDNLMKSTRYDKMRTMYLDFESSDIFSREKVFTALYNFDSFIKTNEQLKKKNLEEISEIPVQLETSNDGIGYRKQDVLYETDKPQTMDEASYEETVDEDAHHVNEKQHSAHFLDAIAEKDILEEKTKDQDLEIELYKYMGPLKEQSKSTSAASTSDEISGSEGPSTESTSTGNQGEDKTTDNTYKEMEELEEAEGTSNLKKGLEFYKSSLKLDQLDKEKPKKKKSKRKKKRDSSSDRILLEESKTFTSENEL
As to the kind of experiment: ELISA.

As usually defined, the Kd is the equilibrium constant for the complex coming apart.

On to GMPWLSATTVRSVTHANALTVMGKASTPGAAAQIQEVKEQRI (domain or fragment, UniProt P02730 720-761, looked up) [GST-5ABC (5ABC region of human erythrocyte band 3, amino acids 720-761, as GST fusion protein)], for which binding was characterised by a dissociation constant (Kd) of 183 ± 0.111 nM.

Values taken from article PMC4198471 (Biochimica et biophysica acta, 2014).
